Assay results as given in patent US20220267462A1 (HARPOON THERAPEUTICS, published 2022).
Where a chain is given by its changes, count along the chain named.

T1: cynomolgus EpCAM protein (cynomolgus, UniProt Q1WER1 27-265 (rhesus entry), limits assumed, biotinylated in the Octet assays (site not stated))
T1 construct: also called cy EpCAM; biotinylated cynomolgus EpCAM protein
T1 sequence: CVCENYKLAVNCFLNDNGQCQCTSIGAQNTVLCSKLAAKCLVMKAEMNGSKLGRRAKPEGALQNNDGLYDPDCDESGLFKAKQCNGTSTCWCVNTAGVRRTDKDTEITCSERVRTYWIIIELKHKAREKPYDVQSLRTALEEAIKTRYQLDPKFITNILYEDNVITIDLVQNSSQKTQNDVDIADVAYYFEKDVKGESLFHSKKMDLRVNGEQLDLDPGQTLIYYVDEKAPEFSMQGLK

T2: human EpCAM protein (human, UniProt P16422 24-265, biotinylated in the Octet assays (site not stated))
T2 construct: also called hu EpCAM; biotinylated human EpCAM protein
T2 sequence: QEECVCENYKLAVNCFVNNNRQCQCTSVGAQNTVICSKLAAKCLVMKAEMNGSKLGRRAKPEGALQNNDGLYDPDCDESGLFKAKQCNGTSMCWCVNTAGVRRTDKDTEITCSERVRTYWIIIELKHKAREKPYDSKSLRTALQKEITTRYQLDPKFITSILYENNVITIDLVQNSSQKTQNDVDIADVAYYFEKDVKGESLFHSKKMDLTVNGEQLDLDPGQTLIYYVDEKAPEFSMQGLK

B1: EPL86 (VHH)
VHH: QVQLQESGGGLVQPGGSLRLSCAASGFTFSDWAMSWVRQAPGKGLEWVSGIHYGDHTTHYADFVKGRFTISRDDAKNTLYLQMNSLKPEDTAVYYCARGSTKGQGTQVTVSS
B2: EPL153 (VHH)
VHH: B1 VHH with G50S, A97E, R98K, S100T, K102R
B3: EPL129 (VHH)
VHH: QVQLQESGGGLVQAGGSLRLSCAASGFAFGNHWMYWYRQAPGRGRELVASISSGGSTNYVDSVKGRFTISRDNARNTVYLQMYSLRPEDTAVYYCGTSDNWGQGTQVTVSS
B4: EPL13 (VHH)
VHH: B3 VHH with A14P, R86K
B5: EPL20 (VHH)
VHH: QVQLQESGGGLVQAGGSLKLSCAASGNVFRAATMAWYRQAPEKQREMVATIASGGTTNYADFVKGRFTISRDNAKNTVYLQMNTLKPEDTAVYYCNAGYLTSLGPKNYWGQGTQVTVSS
B6: EPL125 (VHH)
VHH: B5 VHH with K19R, A40V, G98L, N107S
B7: EPL60 (VHH)
VHH: QVQLQESGGGLVQAGGSLRLSCAASEYILSMYRMAWYRQAPGKVRELVADMSSGGTTNYADFVKGRFTISRDNDRNTVYLQMNRLQPEDTAAYYCNVAGRTGPPSYDAFNNWGQGTQVTVSS
B8: EPL156 (VHH)
VHH: B7 VHH with A14P, G16A, L20V
B9: EPL145 (VHH)
VHH: QVQLQESGGGLVQAGGSLRLSCAASGFIFRAASMGWFRQSPGNERELVATVSSGGFTNYADSVKGRFTISRDNAKNTVYLQMNSLKPEDTAVYFCGATFVRSDGHHTIYGQGTQVTVSS
B10: EPL159 (VHH)
VHH: B3 VHH with R86K

target: T1, cynomolgus EpCAM protein; test: colorimetric ELISA
Excerpt: (§1) A phage display library for expression of heavy variable antibody domains was constructed from circulating B cells. See van der Linden, de Geus, Stok, Bos, van Wassenaar, Verrips, and Frenken. 2000. J Immunol Methods 240:185-195.

Going from B1 to B2, the “Cynomolgus EpCAM/Control” value falls from 31 to 21.

Going from B3 to B4, the “Cynomolgus EpCAM/Control” value falls from 29 to 23.

Going from B5 to B6, the “Cynomolgus EpCAM/Control” value rises from 4 to 8.

Going from B7 to B8, the “Cynomolgus EpCAM/Control” value falls from 33 to 17.

target: T2, human EpCAM protein; test: colorimetric ELISA
Excerpt: as §1

Compared with B1, B2 is higher in “Human EpCAM/Control” value: 8 for the first, 31 for the second.

First: B3
Second: B4
The “Human EpCAM/Control” value of the first is higher: 20 for the first, 17 for the second.

First: B5
Second: B6
The “Human EpCAM/Control” value of the first is lower: 6 for the first, 8 for the second.

Compared with B9, B7 is higher in “Human EpCAM/Control” value: 3 for the first, 10 for the second.

B8 was tested, and the “Human EpCAM/Control” value was 16.

target: cynomolgus EpCAM protein (cynomolgus); test: colorimetric ELISA

B10 and B9 are the same in Cynomolgus EpCAM/Control: 2 for the first, 2 for the second.
